This is an account of results in patent US20050106653A1.

The IC50 is the concentration that inhibits the measured activity by half. Low readings indicate greater potency, high ones weaker potency.

In series [1] the target is rIRS-1 449-664 GST fusion protein preincubated with PKC from rat brain (PKC-rb), then tyrosine phosphorylated by insulin receptor (rat) (UniProt P35570). Nature of the series: cell-based or functional assay.
In series [2] the target is rIRS-1 449-664 S570A GST fusion protein preincubated with PKC-ζ, then tyrosine phosphorylated by insulin receptor (rat) (UniProt P35570). Kind of series: cell-based or functional assay.
Series [3] has as its target rIRS-1 449-664 S612A GST fusion protein preincubated with PKC-ζ, then tyrosine phosphorylated by insulin receptor (rat) (UniProt P35570). Kind of series: cell-based or functional assay.
For series [4], the target named is GST fusion protein containing amino acids 449-664 of rat IRS-1 (rIRS-1 449-664), no PKC pretreatment (rat) (UniProt P35570). Kind of series: cell-based or functional assay.
In series [5] the target is rIRS-1 449-664 GST fusion protein preincubated with PKC-ζ, then tyrosine phosphorylated by insulin receptor (rat) (UniProt P35570). Kind of series: cell-based or functional assay.
In series [6] the target is regulatory p85α subunit of bovine PI 3-kinase (bovine) (UniProt P23727). Nature of the series: SPR competition: 100 nM p85α with soluble peptide over the same peptide immobilised.
The target is the same in series [7]. Nature of the series: SPR (Biacore) competition: 100 nM p85α preincubated with soluble peptide, injected over the same peptide immobilised; two site competition fit, second value.
Series [8] has the same target. Nature of the series: SPR (Biacore) competition: 100 nM p85α preincubated with soluble peptide, injected over the same peptide immobilised; two site competition fit, first value. For orientation: Surface plasmon resonance follows binding to a sensor surface in real time, without labels.
The target in series [9] is rIRS-1 449-664 S570A GST fusion protein preincubated with PKC-ζ, then tyrosine phosphorylated by insulin receptor (rat) (UniProt P35570). Kind of series: GST pull-down and immunoblot; against the insulin-stimulated control without PKC-ζ set as 100%. Background: In western blotting, separated proteins are transferred to a membrane and probed.
Series [10] deals with rIRS-1 449-664 S612A GST fusion protein preincubated with PKC-ζ, then tyrosine phosphorylated by insulin receptor (rat) (UniProt P35570). The series is described as above.
The target of series [11] is rIRS-1 449-664 GST fusion protein preincubated with PKC-ζ, then tyrosine phosphorylated by insulin receptor (rat) (UniProt P35570). Nature of the series: GST pull-down and immunoblot; against insulin-stimulated rIRS-1 449-664 without PKC-ζ set as 100%.
Series [12] deals with rIRS-1 449-664 GST fusion protein preincubated with PKC from rat brain (PKC-rb), then tyrosine phosphorylated by insulin receptor (rat) (UniProt P35570). Kind of series: GST pull-down and immunoblot; against insulin-stimulated rIRS-1 449-664 without PKC set as 100%.
The target of series [13] is T1, GST fusion protein containing amino acids 449-664 of rat IRS-1 (rIRS-1 449-664), no PKC pretreatment.
T1 chain: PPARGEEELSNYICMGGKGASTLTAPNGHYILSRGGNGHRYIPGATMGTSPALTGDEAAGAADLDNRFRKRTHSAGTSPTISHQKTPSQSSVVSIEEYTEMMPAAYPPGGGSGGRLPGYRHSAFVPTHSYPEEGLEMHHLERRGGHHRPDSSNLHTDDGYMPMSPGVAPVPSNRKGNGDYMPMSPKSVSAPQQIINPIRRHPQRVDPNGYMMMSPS

Chain of regulatory p85α subunit of bovine PI 3-kinase (bovine) (P23727 whole entry): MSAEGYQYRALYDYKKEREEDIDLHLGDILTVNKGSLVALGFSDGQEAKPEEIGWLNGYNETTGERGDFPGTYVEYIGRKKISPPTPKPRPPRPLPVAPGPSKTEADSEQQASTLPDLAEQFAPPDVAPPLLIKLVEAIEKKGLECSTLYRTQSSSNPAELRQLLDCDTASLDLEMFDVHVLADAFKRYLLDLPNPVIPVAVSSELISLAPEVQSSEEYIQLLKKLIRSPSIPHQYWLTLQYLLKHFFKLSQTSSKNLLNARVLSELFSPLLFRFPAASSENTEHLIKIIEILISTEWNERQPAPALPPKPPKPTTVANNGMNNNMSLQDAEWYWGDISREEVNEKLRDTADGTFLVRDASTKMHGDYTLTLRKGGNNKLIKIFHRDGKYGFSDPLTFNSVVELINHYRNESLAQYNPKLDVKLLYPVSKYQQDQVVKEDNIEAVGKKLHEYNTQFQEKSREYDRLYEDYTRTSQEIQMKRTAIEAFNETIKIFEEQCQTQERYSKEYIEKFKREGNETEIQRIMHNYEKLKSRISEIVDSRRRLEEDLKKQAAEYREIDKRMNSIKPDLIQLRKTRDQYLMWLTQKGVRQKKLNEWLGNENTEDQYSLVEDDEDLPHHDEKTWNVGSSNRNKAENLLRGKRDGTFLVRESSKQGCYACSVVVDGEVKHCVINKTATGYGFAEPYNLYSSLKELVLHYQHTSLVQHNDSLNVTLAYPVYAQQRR

In turn, “insulin receptor, WGA-purified from rat liver, insulin-stimulated and autophosphorylated (from UniProt P15127 27-1383)” came in with a reduction of insulin-stimulated tyrosine phosphorylation in [1] of 27%. Also, the reduction of tyrosine phosphorylation by IR after PKC-ζ pretreatment in series [2], in [3] and in series [5] was 30 to 40% each time. For the same molecule, the insulin-stimulated tyrosine phosphorylation of rIRS-1^449-664, fold over basal in [4] was determined as 8.8 fold. Also, the inhibition of tyrosine phosphorylation in [5] stood at 46%.
“IRS-1 peptide pY608-pS612 (DDGpYMPMpSPGV), amino acids 605 to 615 of rat IRS-1 with phosphotyrosine 608 and phosphoserine 612” returned a peptide concentration for complete inhibition in [6] of 10 µM. For the same molecule, the IC50 in series [7] stood at 2880 nM; in series [8], 150 nM.
Turning to “regulatory p85α subunit of bovine PI 3-kinase (from UniProt P23727 1-724)”, the p85α binding, % of control was 43 % of control in series [9] and 28 % of control in series [10]. The inhibition of p85α binding in series [11] was determined as 81%. The molecule also showed an inhibition of the association of p85α in series [12] of 49%.
On to “IRS-1 peptide pY608 (DDGpYMPMSPGV), amino acids 605 to 615 of rat IRS-1 with phosphotyrosine 608”, for which the peptide concentration for complete inhibition in series [6] stood at 10 µM. Further, the IC50 in [7] turned out to be 16600 nM; in series [8], 260 nM.

B1: recombinant human protein kinase C-ζ (protein)
chain: MPSRTGPKMEGSGGRVRLKAHYGGDIFITSVDAATTFEELCEEVRDMCRLHQQHPLTLKWVDSEGDPCTVSSQMELEEAFRLARQCRDEGLIIHVFPSTPEQPGLPCPGEDKSIYRRGARRWRKLYRANGHLFQAKRFNRRAYCGQCSERIWGLARQGYRCINCKLLVHKRCHGLVPLTCRKHMDSVMPSQEPPVDDKNEDADLPSEETDGIAYISSSRKHDSIKDDSEDLKPVIDGMDGIKISQGLGLQDFDLIRVIGRGSYAKVLLVRLKKNDQIYAMKVVKKELVHDDEDIDWVQTEKHVFEQASSNPFLVGLHSCFQTTSRLFLVIEYVNGGDLMFHMQRQRKLPEEHARFYAAEICIALNFLHERGIIYRDLKLDNVLLDADGHIKLTDYGMCKEGLGPGDTTSTFCGTPNYIAPEILRGEEYGFSVDWWALGVLMFEMMAGRSPFDIITDNPDMNTEDYLFQVILEKPIRIPRFLSVKASHVLKGFLNKDPKERLGCRPQTGFSDIKSHAFFRSIDWDLLEKKQALPPFQPQITDDYGLDNFDTQFTSEPVQLTPDDEDAIKRIDQSEFEGFEYINPLLLSTEESV
With B1, in series [13], the “32P incorporation, SDS-PAGE and autoradiography” value is “a prominent phosphorylation of rIRS-1^449-664 by PKC became detectable”; the “phosphopeptide mapping by HPLC of wild type and S570A” value is listed as “serine 570 of IRS-1 is a novel phosphorylation site targeted by PKC-ζ”.
